Assay results reported in the DeepSol protein solubility set.

Assay: soluble on expression in E. coli; label from the status in PepcDB or PDB records

Soluble on expression in E. coli, not soluble:
MGSDKIHHHHHHMNETPLRLLEMLTQTREDLWRAAQALTERGVTRIILTGSGTSYHGALTARTFMQRWCALPVDVCWPFMLDDETLARSGKALVVGISQGGGSLSTLAAMERARNVGHITASMAGVAPATIDRAADYILTVPCGEETAGAKTKGYHCTVLNLMLLALAVAGQQQRLDGEQRRSLLLRMEKTFNHLPALVTASQAWAQTNALALRDSADIRLTGPATLFGTVQEGALKMLETLRCPVSGYEFEEFIHGIYNAFNAQSALIMLDPQPDARQDRLAQILGEWTPSIYRIGPQVENNGLNLNFPFVNDEDFAVFEYIIPLQMLCAILPPQKGINPAIPKDPQFHQKMKSKQEI, MGSDKIHHHHHHMNFIKEKHIEIVLNQTCLNPKLSVFLPVIKKTGVQLISVFHSQPYGMYGIKAFPKICNVFGVDKVGNLVDVLIHFAFKLKYGRYLKRMLQYSDKLVMLSDKFINEFLYFSGKKYAEKMLSISNPVTINGGGSEKKEKIVLFVGRISQEKGVDKILEVWRGICHEEKYKEWRLVIVGDGEKRKQMEKYAMDMELINYSFEGFQKPDGYYDKAKIFCMASAFEGFGLVLVEAMSYGVVPMAFNSFSNCSDIIDDDKNGILVTPFSINEYRKKIIELIENDEKWMKMSTCSINKSKEYSIECIGAKWLDLFYSLLNNKVT, MGSDKIHHHHHHMNFTHKNLQRSYMAERTMVILDGGMGRELQRSGAPFRQPEWSALALSEAPEAVVGVHAAFIDAGAQVITSNSYAVVPFHIGEERFAAEGRQLAHIAGQLARHAADSGAHPVRVAGSLPPLFGSYRPDLFQPERVAEVLTPLLQGLAPHVDLWLAETQSSVAEVRAIHSHLPADGRPFWVSFTLQDEEVDEVPRLRSGEPVAEAIEAAVGLGVAAVLFNCSQPEVIGAAIDVARSVIERHNAEIAIGAYANAFPPQPKEATANDGLDELREDLDPPGYLAWAKDWRARGASMVGGCCGIGPEHIAELKRNLA, MGSDKIHHHHHHMNHIGTREIATERLTLRRFEIEDAENMFYNWANDPEVTKYLTWPAHESVDTTETILKEWISKYDEKDFYQWAIELNDLEQPIGTISAIKTDERVESVEIGYCIGKRFWNNGYMTEALTAIIRFFINEVGAGRIWARHDTENPNSGKVMVAAGMDYEGTLRHAGFNNQGICDEAVYAKVRSAALDEEPEEETPEQQAVTTKVMGEDGVMRNVISDETMEYVGILAKLELSPEEAEAAKKDMADMLDYIDKLEELDTSGIEPMSHVFPVNNVFRDDVVTNGDGSEATLANAPVKKDGGFKVPKTIGE, MGSDKIHHHHHHMNHYVEGKLLIIGGAEDKKGECKILKRFIQEAGGRESRVVVLTAATEMPEQVGSEYKELFENLGAAEVQVLDIAERVSANRESISQELQKATGIFFTGGDQLRITGILGGTRLGRTLHNLYQRGVIIAGTSAGASVMSDTMIVGGEAGTPKKDTLTMAPGLGLLHSVVVDQHFAQRGRIGRLLTAIAQNPYVLGVGIDEDTSILVYSDGHFTVVGSQTVTVVDASPTMASNVSEISPGQALVLTPVLMHILSDGYRFDLKRRAASLNETPSGG, MGSDKIHHHHHHMNIAIDARGINLYRGTGIGTYTENLVRELLNIDEENSYTLYWYGNNYKDFIKSNTKINIVSKGCHSFFEKCYFPENIIKNSIEIYHVPQNGIGLDQNVSCIKVSTVHDLIPYIMPETVGKGYLLKFLKNMPFIIENSDAILTVSEYSKKDILKYFPINEDKIYVTPLAANYNYKPLSREHCKKFIEKNYSISDPFVLYLGGFSKRKNVRNLILAFADASKKLSKKHNLVIIGLCRDELESLKDLCRHLNISNEVIFTGYIGERFLPVFYNACELFVYPSLYEGFGLPVLEAMSCKTPVVTSNISSIPEIAGDSAVLINPLDTSELRDAILNILEDSKLKQKLSIEGFNRSRKFSWKNTSKKTLEAYSNIYNTFA, MGSDKIHHHHHHMNIHYYLIINEQASSGNGRKVARKVIQQLKQQELKYTALYTDYAGHEKELTKELAETTLLPWSEDLDVSTFPILVVLGGDGTLHNVINSLLPYDSTIPLSYIPCGSGNDFARGVGLSRNIDKALHQILRTRRPKEIQTIHYVEANQEEIGLATNNVGLGLDAAIVEKTNESSSKKALNKFKLGSLSYISSIIHVFFRQKGFPILVEMNGKQYTFNRAFLCTVTNHPYFGGGVSIMPTANPRKAVVDLVVVERINIFKILWLIFLLLRQKQGKSKHFHHFQSSKIRIVSTIPQTIHADGEILGKRSIDMVYTTQKRLFWF
